{"source": "patent US20250357519", "key": {"[1]": {"molecular_target": "partially acetylated equine heart cytochrome c (Sigma C4186), P00004", "sequence (P00004 2-105)": "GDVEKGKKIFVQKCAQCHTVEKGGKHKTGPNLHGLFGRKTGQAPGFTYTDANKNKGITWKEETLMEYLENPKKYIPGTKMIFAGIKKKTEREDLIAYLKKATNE"}, "[2]": {"molecular_target": "native equine heart cytochrome c (Sigma C2506), P00004", "sequence (P00004 2-105)": "as above"}}}
{"protein": "Strep-tag II-tagged DvH-FDH2 (recombinant formate dehydrogenase 2 from Desulfovibrio vulgaris Hildenborough, heterodimer of large and small subunit) (protein) chain 1: MRMPRRTFIKLASASAGALAFAGLGQSLAPTVARAAELKIAKAKVTPSVCCFCAVGCGLLVYTDTQTGRSINIEGDPDHPTNEGTLCPKGASIWQTTERSKRVTKVLYRAPGAAAWEEKSWDWALPRIARKIKETRDATFELTNDKGQTVNRTRGIASVGSAAVDNEEGWLMQAMMRALGLVYIESHARIUHSSTVGALAESYGRGAMTNHWIDLKNSDVILIMGSNAAENHPISFKWVTRAQERGATLIHVDPRFTRTSAKADIHAHIRSGTDIAFFGGLIRYIMENDLFFRQYVVDYTNASYIVGADYGFADGLFTGFDAEKGTYNTKKWAFAADENGMTLKDPTLNDPRCVFQLMKAHYARYDRKTVSDVTGISEEQLATLWSTFASTGKPDRAGTILYAMGQCQHTVGVQNIRALSMIQLLLGNIGIAGGGVNALRGESNVQGTTDISLLCDNLSGYLPTPKASWATFDDYVKGTTPVDKDPKSANWWSNRGKYLASYMKSVYPTASHQDGYLWHPKVDDGKITDYSWLQIFERMSKGGFKGAFVWGQNPCAGGANAGKNRKAMETLDWMVVVNLFENESSLFWKGPGVDPAKVKTEVFFLPACMSVEKGGSIANSGRWLQWREPGPKPMGDSRSDGDIVLDLYDEIRKLYREEKGAFPEPVLALDTDYRTDGKYDHHKVAKTLNGKFLTDVTIGDKTYKAGQQVPGFAMLQADGSTTSGCWIFTGCYTDAGNMMARRDRTQTPEQAAIGLFPNWSYAWPANRRILYNRAAVDMTGKPFDPKRAVIAWNGEKWVGDVPDGGWKPGEKLPFIMIREGRGQLFGPGRVDGPFPEHYEPFESPLESHPFSKQRVNPTALAFSHEPKAVRDKRYPFICTTYRVTEQWQSGTMTRNTGWLKEMQPEGFCEISRELAKELGIANGDAVVLESLRGKVQVVAIVTPRLKPFKVMGEVMHEVGIPWQFGWGQHVGKGDSANLLSPSVGDPNTGIPETKVFMVNLRKA chain 2: MRPLGSLPQGMRRVSRRHIREAYMNGKTFFIDQTRCTACRGCQAACKQWKKFGSIETRNTGSYQNPPDLGPSTFKLVRFNEVEVDGKLKWLFFPEQCRHCLEPPCKMVADALIPGAIVQDAETGAVLYTEKTKGLDYMEVRSACPYDIPRQDPATGLLTKCNMCIDRVQNGMLPACVKTCPTGTMHFGDRADMLELAQKRLGEVKKRSPAALLADSDLVRVLYLCELAPANYHSHMVAEADTSRIGPFSRRALLRLRPFA", "values": [{"measurement": "reduction of acetylated equine cytochrome c during DvH-FDH2 catalysis (absorbance at 550 nm)", "setting": "[1]", "value": "DvH-FDH2 does not reduce acetylated cytochrome c"}, {"measurement": "reduction of native equine cytochrome c in air at doubled formate concentration (electronic spectra)", "setting": "[2]", "value": "Doubling the formate concentration resulted in near-stoichiometric reduction in air"}, {"measurement": "reduction of native equine cytochrome c in the presence of formate (absorbance at 550 nm), anaerobic", "setting": "[2]", "value": "stoichiometric reduction occurred under anaerobic conditions"}, {"measurement": "reduction of native equine cytochrome c in the presence of formate (absorbance at 550 nm), in air", "setting": "[2]", "value": "~80% underwent reduction in air"}]}
